Test results from paper doi:10.1101/2021.06.03.446896.

Molecular target: Cy5-labelled 46w60 mononucleosome (histone octamer on DNA)
Experiment: MST

For “human CHD4 (from UniProt Q14839 1-1912) (enzyme)”, the Kd was 0.041 µM, the fold change of Kd with 2 uM (CA)20 RNA against no RNA was less than 2 fold and the fold reduction of affinity with 2 uM (GA)20 RNA against no RNA was 20 fold.
